Test results from patent publication US20200261603A1 (Astellas, published 2020).

Legend:
[1] = molecular target: T1, human cancer-specific MUC1 (human, UniProt P15941 24-1255, cancer-specific incomplete O-glycosylation (T, Tn, 2,3ST) of threonine at position 9 of the 20-amino acid tandem repeat … (SEQ ID NO: 15), as the background describes it); test: Cell ELISA on formalin-fixed T-47D cells, HRP anti-human Igκ, luminescence
T1 construct: whole, on cells; also called Mucin 1; human MUC1

[2] = molecular target: T1, human cancer-specific MUC1; test: immunostaining of a human bladder cancer tissue array, 0.25 µg/mL primary antibody, Polymer-HRP/DAB

B1: P10-2 Fab (Fab, V domains shown)
VH: QVQLVQSGAEVKKPGASVKVSCKASGYTFTNYGLSWVRQAPGQGLEWMGENHPGSGIIYHNEKFRGRVTLTADRSTSTAYMELSSLRSEDTAVYYCARSSGTRGFDYWGQGTLVTVSS
VL: DVVMTQTPLSLSVTPGQPASISCRSSQSIVHSNGNTYLEWYLQKPGQSPQLLIYRVSNRFSGVPDRFSGSGSGTDFTLKISRVEAEDVGVYYCFQGSHGPWTFGQGTKLEIKR
modifications: heavy chain N-terminal glutamine was modified into pyroglutamic acid in a great majority of purified antibodies
notes: expressed in Expi293F cells; also called anti-human MUC1 antibody Fab fragment P10-2
In the case of B1, the “fold binding activity compared to 1B2 Fab” value [1] is reported as ≥ 10 times (vs 1B2 Fab).

B2: mouse chimeric P10-2 IgG (antibody, V domains shown)
VH: QVQLVQSGAEVKKPGASVKVSCKASGYTFTNYGLSWVRQAPGQGLEWMGENHPGSGIIYHNEKFRGRVTLTADRSTSTAYMELSSLRSEDTAVYYCARSSGTRGFDYWGQGTLVTVSS
VL: DVVMTQTPLSLSVTPGQPASISCRSSQSIVHSNGNTYLEWYLQKPGQSPQLLIYRVSNRFSGVPDRFSGSGSGTDFTLKISRVEAEDVGVYYCFQGSHGPWTFGQGTKLEIKR
notes: Antibody in which the VH and VL domains of P10-2 Fab were fused with mouse IgG2a CH1 to CH3 domains and a mouse κ chain CL domain; not shown: mouse IgG2a CH1 to CH3 domains; mouse κ chain CL domain
B2: binds [2].

B3: P10-1 Fab Dye (Fab, V domains shown)
VH: QVQLVQSGAEVKKPGASVKVSCKASGYTFTNYGLSWVRQAPGQGLEWMGENHPGSGIIYHNEKFRGRVTLTADRSTSTAYMELSSLRSEDTAVYYCARSSGTRGFAYWGQGTLVTVSS
VL: DVVMTQTPLSLSVTPGQPASISCRSSQSIVHSNGNTYLEWYLQKPGQSPQLLIYRVSNRFSGVPDRFSGSGSGTDFTLKISRVEAEDVGVYYCFQGSHGPWTFGQGTKLEIKR
modifications: IRDye800CW (NHS ester) on Lys of the Fab fragment; number and positions not stated
notes: also called IRDye800CW-labeled P10-1 Fab
B3: binds [1].

B4: P10-1 Fab (Fab, V domains shown)
VH: QVQLVQSGAEVKKPGASVKVSCKASGYTFTNYGLSWVRQAPGQGLEWMGENHPGSGIIYHNEKFRGRVTLTADRSTSTAYMELSSLRSEDTAVYYCARSSGTRGFAYWGQGTLVTVSS
VL: DVVMTQTPLSLSVTPGQPASISCRSSQSIVHSNGNTYLEWYLQKPGQSPQLLIYRVSNRFSGVPDRFSGSGSGTDFTLKISRVEAEDVGVYYCFQGSHGPWTFGQGTKLEIKR
notes: expressed in Expi293F cells; also called anti-human MUC1 antibody Fab fragment P10-1
In the case of B4, the “fold binding activity compared to 1B2 Fab” value [1] is reported as ≥ 10 times (vs 1B2 Fab).
